Measured values as given in patent US20030147861A1, “Compounds and methods for the modulation of immune responses” (Genesis Research and Development Corporation Limited, priority 2001, published 2003).

Key:
[1] = tested on: MAP kinase signaling pathway in THP-1 cells (IL-10 production); experiment: AVAC-induced IL-10 production by THP-1 cells pre-treated with MAP kinase inhibitors (ELISA); format: cell-based, human; settings: inhibitor pre-treatment 120 minutes; 25 μg/mL AVAC, 24 hours
Procedure: The involvement of the MAP kinase signaling pathway in the production of IL-10 by THP-1 cells in response to AVAC was assessed as follows.
Prior to culture with AVAC, 50 μL of THP-1 cells in cRPMI-10 were pre-treated in duplicate microplate wells with 50 μL of serially diluted PD98059 (Calbiochem cat. no. 51300, a selective inhibitor of MAP kinase), SB202190 (Calbiochem cat. no. 559388, an inhibitor of p38 MAP kinase and p38β MAP kinase), SB203580 (Calbiochem cat. no. 559389, a highly specific inhibitor of p38 MAP kinase), with SB202474 (Calbiochem cat. no. 559387, a negative control for MAP kinase inhibition studies), or with no added chemicals. MAP kinase inhibitors and control were used at a final concentration of 100 μg/mL, 20 μg/mL, 4.0 μg/mL, 0.8 μg/mL, 0.16 μg/mL, or […]. Pretreatment of cells with MAP kinase inhibitors and control was for 120 minutes in a water-jacketed, humidified incubator at 37° C. supplied with 5% CO2 in air.
Following pretreatment, the cells were washed once in cPRMI-10 to remove inhibitor or control chemicals. […] IL-10 content in the microculture supernatants was determined by sandwich ELISA using a commercially available set (eBioscience cat. no. 88-7106-77,) according to the manufacturer's recommendations. […]

[2] = tested on: CD69 on αβT cells, γδT cells and NK cells; format: cell-based, human
[3] = tested on: CD40, CD80 and CD86 on dendritic cells; format: cell-based, human
[4] = tested on: popliteal lymph node cells; experiment: Proliferation of lymph node cells from GV protein-immunized mice; format: cell-based, female BALB/cByJ mice; settings: lymph node cells of mice immunized with 10 μg of the same GV protein in IFA
Procedure: (§1) The immunogenicity of Mycobacterium vaccae recombinant proteins (referred to herein as GV recombinant proteins) was tested by injecting female BALB/cByJ mice in each hind foot-pad with 10 μg of recombinant GV proteins emulsified in incomplete Freund's adjuvant (IFA). Control mice received phosphate buffered saline in IFA. The draining popliteal lymph nodes were excised 10 days later and the cells obtained therefrom were stimulated with the immunizing GV protein and assayed for proliferation by measuring the uptake of tritiated thymidine. The amount of interferon gamma (IFNγ) produced and secreted by these cells into the culture supernatants was assayed by standard enzyme-linked immunoassay.

[5] = tested on: CD40, CD80 and CD86 on monocytes; experiment: CD40, CD80 and CD86 expression on monocytes (3 color flow cytometry); format: cell-based, human; settings: 20 ug/ml, 48 hours, vs non-stimulated cells
From the text: (§2) Stimulated cells were harvested and analyzed for up-regulation of CD40, CD80 and CD86 using 3 color flow cytometric analysis. Tables 16, 17 and 18 show the fold increase in mean fluorescence intensity from control (non-stimulated cells) for dendritic cells, monocytes, and B cells, respectively.

[6] = tested on: CD40, CD80 and CD86 on B cells; experiment: CD40, CD80 and CD86 expression on B cells (3 color flow cytometry); format: cell-based, human; settings: 20 ug/ml, 48 hours, vs non-stimulated cells
From the text: as §2

[7] = tested on: IL-1β, TNF-α, IL-12 and IFN-γ production in PBMC; experiment: Cytokine production in PBMC from normal donors (ELISA); format: cell-based, human
[8] = tested on: IFNγ production by lymph node cells; experiment: IFNγ production by lymph node cells from GV protein-immunized mice (enzyme-linked immunoassay); format: cell-based, female BALB/cByJ mice; settings: lymph node cells of mice immunized with the same GV protein
Procedure: as §1

[9] = Dose of GV protein used in vitro 0.08 μg/ml
[10] = Dose of GV protein used in vitro 2 μg/ml
[11] = Dose of GV protein used in vitro 50 μg/ml
[12] = dendritic cells, 20 ug/ml, 48 hours, vs non-stimulated cells

C[S+]([O-])c1ccc(-c2nc(-c3ccncc3)c(-c3ccc(F)cc3)[nH]2)cc1 (stereo not drawn) [SB203580]
suppression of AVAC-induced production of IL-10 by THP-1 cells [1]: substantially suppressed in a dose-dependent manner

cholera toxin [reference compound]
CD69 expression on NK cells, comparison with adjuvants [2]: did not | CD40, CD80 and CD86 expression in dendritic cells, comparison with adjuvants [3]: modest

Oc1ccc(-c2nc(-c3ccncc3)c(-c3ccc(F)cc3)[nH]2)cc1 [SB202190]
suppression of AVAC-induced production of IL-10 by THP-1 cells [1]: substantially suppressed in a dose-dependent manner

B1: GV-45: recombinant M. vaccae antigen, amino acid sequence SEQ ID NO: 52 (protein, listed as Mycobacterium vaccae)
chain: MNKAELIDVLTEKLGSDRRQATAAVENVVDTIVRAVHKGESVTITGFGVFEQRRRAARVARNPRTGETVKVKPTSVPAFRPGAQFKAVVSGAQKLPAEGPAVKRGVTATSTARKAAKKAPAKKAAAKKAAPAKKAPAKKAATKAAPAKKATAAKKAAPAKKATAAKKAAPAKKAPAKKAATKAAPAKKAPAKKAATKAAPAKKAPAAKKAPAKKAPAKRGGRK
percentage of αβT cells expressing CD69 ([2]; PBMC from normal donors, 20 ug/ml, 24 hours, control 3.8): 11.7% | percentage of NK cells expressing CD69 ([2]; PBMC from normal donors, 20 ug/ml, 24 hours, control 4.8): 6.3% | percentage of γδT cells expressing CD69 ([2]; PBMC from normal donors, 20 ug/ml, 24 hours, control 6.2): 4.9% | Proliferation (cpm) [4, 9]: 1,497 ± 199 cpm | Proliferation (cpm) [4, 10]: 3,683 ± 1,127 cpm | Proliferation (cpm) [4, 11]: 9,554 ± 482 cpm | CD40 expression, fold increase in mean fluorescence intensity from control [5]: 1.6 fold | CD80 expression, fold increase in mean fluorescence intensity from control [5]: 1.2 fold | CD86 expression, fold increase in mean fluorescence intensity from control [5]: 1.0 fold | CD40 expression, fold increase in mean fluorescence intensity from control [6]: 1.2 fold | CD80 expression, fold increase in mean fluorescence intensity from control [6]: 1.1 fold | CD86 expression, fold increase in mean fluorescence intensity from control [6]: 1.3 fold | CD40, CD80 and CD86 expression on dendritic cells ([3]; 20 ug/ml, 48 hours, T cell-depleted PBMC): highest levels of expression | CD40 expression, fold increase in mean fluorescence intensity from control [3, 12]: 5.8 fold | CD80 expression, fold increase in mean fluorescence intensity from control [3, 12]: 3.0 fold | CD86 expression, fold increase in mean fluorescence intensity from control [3, 12]: 3.1 fold | production of IL-1β, TNF-α, IL-12 and IFN-γ by PBMC [7]: stimulate the production of IL-1β, TNF-α and IL-12

B2: GV-33: recombinant M. vaccae antigen, amino acid sequence SEQ ID NO: 44 (protein, listed as Mycobacterium vaccae)
chain: MVRAALRYGFGTASLLAGGFVLRALQGTPAALGATPGEVAPVARRSPNYRDGKFVNLEPPSGITMDRDLQRMLLRDLANAASQGKPPGPIPLAEPPKGDPTPAPAAASWYGHSSVLIEVDGYRVLADPVWSNRCSPSRAVGPQRMHDVPVPLEALPAVDAVVISHDHYDHLDIDTIVALAHTQRAPFVVPLGIGAHLRKWGVPEARIVELDWHEAHRIDDLTLVCTPARHFSGRLFSRDSTLWASWVVTGSSHKAFFGGDTGYTKSFAEIGDEYGPFDLTLLPIGAYHPAFADIHMNPEEAVRAHLDLTEVDNSLMVPIHWATFRLAPHPWSEPAERLLTAADAERVRLTVPIPGQRVDPESTFDPWWRF
IFNγ [8, 10]: 1.52 ± 0.24 ng/mL | IFNγ ([8]; Dose of GV protein used in vitro 10 μg/ml): 8.44 ± 2.35 ng/mL | IFNγ [8, 11]: 7.71 ± 0.26 ng/mL | Proliferation (cpm) [4, 9]: 8,764 ± 256 cpm | Proliferation (cpm) [4, 10]: 27,529 ± 1,238 cpm | Proliferation (cpm) [4, 11]: 41,529 ± 1,919 cpm

B3: GV-35: recombinant M. vaccae antigen, amino acid sequence SEQ ID NO: 45 (protein, listed as Mycobacterium vaccae)
chain: MKANHSGCYKSAGPIWSHPSPLCSPALAPSHAGLDNELSLGVHGQGPEHLTIQQWDTFLNGVFPLDRNRLTREWFHSGKATYVVAGEGADEFEGTLELGYHVGFPWSLGVGINFSYTTPNITYDGYGLNFADPLLGFGDSIVTPPLFPGVSITADLGNGPGIQEVATFSVDVAGPGGSVVVSNAHGTVTGAAGGVLLRPFARLISSTGDSVTTYGAPLKHELTTSRWRPPGVNRGPLHAGREAPEVRSKWPTAANACARDSSSLTQGLVVVECHPVTPPHRPRRDGRGSGVWAPALGTYGGDRRRDVTSVAVFAGNPDGPAESPHPSSEPGGSKEF
Proliferation (cpm) [4, 9]: 1,626 ± 406 cpm | Proliferation (cpm) [4, 10]: 9,968 ± 314 cpm | Proliferation (cpm) [4, 11]: 29,163 ± 2,693 cpm
